Here are results for 1 substance from PMC6712418.

The target in this experiment is Bovine plasma fibronectin (bovine) (UniProt P07589). In words: dynamic single-molecule force spectroscopy (AFM); fibronectin adsorbed on a gold surface; integrin or proteoglycan tethered by PEG to the AFM tip; PBS; trigger force 500 pN, no dwell; retraction speed varied; Bell-Evans fit of rupture force against ln(loading rate), fm = 10^7 s^-1 assumed.
Chain of Bovine plasma fibronectin (bovine) (P07589 33-2478): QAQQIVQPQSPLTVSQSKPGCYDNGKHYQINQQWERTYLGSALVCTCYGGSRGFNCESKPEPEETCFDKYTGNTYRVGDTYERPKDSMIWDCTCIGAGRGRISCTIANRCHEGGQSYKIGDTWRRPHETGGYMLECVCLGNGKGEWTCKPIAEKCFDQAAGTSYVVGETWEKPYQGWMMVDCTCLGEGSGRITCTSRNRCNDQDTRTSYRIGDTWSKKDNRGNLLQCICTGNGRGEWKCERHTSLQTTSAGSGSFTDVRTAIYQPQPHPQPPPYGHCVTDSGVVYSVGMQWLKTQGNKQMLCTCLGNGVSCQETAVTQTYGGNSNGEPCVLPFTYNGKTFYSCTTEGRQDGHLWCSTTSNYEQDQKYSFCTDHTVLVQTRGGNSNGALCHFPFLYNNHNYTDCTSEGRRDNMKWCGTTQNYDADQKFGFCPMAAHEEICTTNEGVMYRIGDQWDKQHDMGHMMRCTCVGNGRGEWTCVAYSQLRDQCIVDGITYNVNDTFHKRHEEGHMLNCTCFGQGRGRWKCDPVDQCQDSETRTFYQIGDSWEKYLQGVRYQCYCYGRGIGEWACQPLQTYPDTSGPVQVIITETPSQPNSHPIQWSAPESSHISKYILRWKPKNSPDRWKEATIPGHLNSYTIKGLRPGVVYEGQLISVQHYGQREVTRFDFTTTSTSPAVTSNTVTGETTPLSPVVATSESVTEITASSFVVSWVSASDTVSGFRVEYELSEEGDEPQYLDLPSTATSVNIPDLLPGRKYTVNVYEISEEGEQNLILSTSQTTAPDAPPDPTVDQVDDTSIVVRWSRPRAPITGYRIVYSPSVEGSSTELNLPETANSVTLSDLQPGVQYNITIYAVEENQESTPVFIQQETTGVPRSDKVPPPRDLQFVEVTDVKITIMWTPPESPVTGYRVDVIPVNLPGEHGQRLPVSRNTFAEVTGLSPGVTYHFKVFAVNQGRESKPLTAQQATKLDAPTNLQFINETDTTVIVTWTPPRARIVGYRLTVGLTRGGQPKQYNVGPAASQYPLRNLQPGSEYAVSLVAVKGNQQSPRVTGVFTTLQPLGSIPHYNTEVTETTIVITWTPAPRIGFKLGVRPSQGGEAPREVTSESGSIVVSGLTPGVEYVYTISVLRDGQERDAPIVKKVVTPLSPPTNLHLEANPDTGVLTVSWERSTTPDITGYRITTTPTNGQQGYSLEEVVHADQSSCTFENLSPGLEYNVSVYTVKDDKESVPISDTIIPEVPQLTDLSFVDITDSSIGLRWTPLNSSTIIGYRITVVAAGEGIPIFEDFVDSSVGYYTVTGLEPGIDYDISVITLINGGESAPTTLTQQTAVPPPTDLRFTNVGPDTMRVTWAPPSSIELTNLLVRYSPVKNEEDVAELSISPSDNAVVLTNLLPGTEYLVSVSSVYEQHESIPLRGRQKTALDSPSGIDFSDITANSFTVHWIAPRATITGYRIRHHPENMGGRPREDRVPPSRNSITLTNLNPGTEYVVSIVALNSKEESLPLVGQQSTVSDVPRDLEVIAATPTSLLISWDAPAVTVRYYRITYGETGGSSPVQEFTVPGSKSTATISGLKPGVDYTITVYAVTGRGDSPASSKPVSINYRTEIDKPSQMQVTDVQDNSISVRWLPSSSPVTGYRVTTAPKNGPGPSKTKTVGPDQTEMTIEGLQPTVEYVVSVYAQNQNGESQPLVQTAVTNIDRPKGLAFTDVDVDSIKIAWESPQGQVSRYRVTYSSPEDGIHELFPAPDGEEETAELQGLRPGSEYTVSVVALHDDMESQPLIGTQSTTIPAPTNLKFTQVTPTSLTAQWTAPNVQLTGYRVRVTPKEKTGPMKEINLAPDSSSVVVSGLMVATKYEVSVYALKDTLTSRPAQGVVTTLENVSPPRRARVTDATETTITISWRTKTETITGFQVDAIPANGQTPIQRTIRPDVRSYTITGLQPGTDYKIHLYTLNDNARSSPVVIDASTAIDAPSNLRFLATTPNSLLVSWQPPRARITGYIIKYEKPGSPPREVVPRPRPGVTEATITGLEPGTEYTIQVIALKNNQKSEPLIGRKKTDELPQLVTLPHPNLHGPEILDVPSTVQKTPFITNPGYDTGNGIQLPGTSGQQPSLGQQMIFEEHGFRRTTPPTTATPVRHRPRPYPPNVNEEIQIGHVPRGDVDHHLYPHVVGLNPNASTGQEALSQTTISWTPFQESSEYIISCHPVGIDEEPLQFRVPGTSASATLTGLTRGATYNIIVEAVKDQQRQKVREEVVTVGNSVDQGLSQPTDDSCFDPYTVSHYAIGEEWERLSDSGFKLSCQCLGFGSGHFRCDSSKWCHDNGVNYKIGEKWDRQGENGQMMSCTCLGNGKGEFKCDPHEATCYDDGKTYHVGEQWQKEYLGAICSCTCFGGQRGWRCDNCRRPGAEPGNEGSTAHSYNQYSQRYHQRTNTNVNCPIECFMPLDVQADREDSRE

The substance “Recombinant human α5β1-integrin (from UniProt P08648 42-1049; P05556 21-728) (receptor)” had a dissociation rate Kd, inner barrier of 70 s⁻¹ and a dissociation rate Kd, outer barrier of 0.18 s⁻¹.
